Paper PMC10031476, “Interaction of the bacterial division regulator MinE with lipid bicelles studied by NMR spectroscopy” (The Journal of Biological Chemistry, 2023)

Biological target: the molecule itself
Assay: NMR (3D 15N-separated NOE spectrum, NOE-TROSY); 2H/15N-labeled ngMinE bound to q = 0.5 DMPC:DHPC bicelles; 150 ms mixing time; 35 °C; 25 mM potassium phosphate pH 6.5, 1 mM EDTA, 1 mM benzamidine hydrochloride

B1: Full-length Neisseria gonorrhoeae MinE bearing the double mutation E46A/R10Q (natural protein)
chain: MSLIELLFGQKQKTATVARDRLQIIIAQERAQEGQTPDYLPTLRKALMEVLSKYVNVSLDNIRISQEKQDGMDVLELNITLPEQKKV
modifications: uniform 2H/15N or 2H/15N/13C isotope labeling
notes: Dimer with C2 symmetry (about 19 kDa); also called ngMinE; full-length ngMinE; not shown: His6, C-terminal, kept
binding result: binds
